Data set [1] has as its target mouse IgG1 (Fc)-LAP-MMP-IFN. Description: cell-based or functional assay.
For data set [2], the system named is mouse IgG1 (Fc)-LAP-MMP-IFN.
Sequence of mouse IgG1 (Fc)-LAP-MMP-IFN (chain, as listed by the source): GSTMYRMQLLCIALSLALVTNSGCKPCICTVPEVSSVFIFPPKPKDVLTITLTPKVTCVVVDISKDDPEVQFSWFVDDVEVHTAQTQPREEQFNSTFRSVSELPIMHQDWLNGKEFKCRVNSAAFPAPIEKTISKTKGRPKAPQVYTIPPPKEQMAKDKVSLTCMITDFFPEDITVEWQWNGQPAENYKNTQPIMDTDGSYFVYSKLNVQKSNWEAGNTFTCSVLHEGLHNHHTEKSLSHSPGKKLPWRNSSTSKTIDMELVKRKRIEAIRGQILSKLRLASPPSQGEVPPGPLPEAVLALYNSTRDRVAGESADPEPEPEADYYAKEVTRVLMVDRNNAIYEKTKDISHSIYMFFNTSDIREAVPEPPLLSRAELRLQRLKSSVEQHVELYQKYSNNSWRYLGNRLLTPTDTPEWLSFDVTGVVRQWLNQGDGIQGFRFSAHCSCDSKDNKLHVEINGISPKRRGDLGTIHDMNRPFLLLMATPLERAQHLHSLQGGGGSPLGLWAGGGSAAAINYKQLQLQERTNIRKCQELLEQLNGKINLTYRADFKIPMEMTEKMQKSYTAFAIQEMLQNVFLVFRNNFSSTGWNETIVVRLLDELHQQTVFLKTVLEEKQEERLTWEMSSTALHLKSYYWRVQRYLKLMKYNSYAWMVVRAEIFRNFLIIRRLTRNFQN

Sequence of recombinant MMP-1 (P03956 100-469): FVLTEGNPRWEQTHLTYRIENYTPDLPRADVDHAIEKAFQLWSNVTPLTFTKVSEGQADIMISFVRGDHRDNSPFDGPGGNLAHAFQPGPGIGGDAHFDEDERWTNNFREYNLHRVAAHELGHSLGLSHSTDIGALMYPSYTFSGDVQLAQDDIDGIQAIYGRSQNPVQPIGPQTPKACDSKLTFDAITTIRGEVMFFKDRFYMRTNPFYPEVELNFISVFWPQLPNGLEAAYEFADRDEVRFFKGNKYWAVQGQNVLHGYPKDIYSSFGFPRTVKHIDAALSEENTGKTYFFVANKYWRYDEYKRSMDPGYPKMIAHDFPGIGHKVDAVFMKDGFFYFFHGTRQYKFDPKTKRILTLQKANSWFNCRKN

recombinant MMP-1 (enzyme): in data set [1], the Luciferase activity (viability of L929 cells after EMC virus infection) was determined as 5070.
With recombinant MMP-1, in data set [2], the IFN biological activity (U/ml) is 30 U/ml and the “cleavage of Ig-LAP-IFN by MMP1 (western blot with anti-LAP antibodies after non-denaturing SDS-PAGE)” value is given as “The molecular weight of the cleaved Ig-LAP corresponds to the expected size of about 160 kDa”.

The record behind these values is patent US20200062814A1.
